In patent US20050037421A1 (INSTITUTE FOR ANTIBODIES, published 2005):

How the values were obtained:
[1] = target: T1, Bacillus stearothemophillus-derived lactic acid dehydrogenase (L-LACTIC DEHYDROGENASE) expressed in E. coli (Bacillus stearothemophillus, UniProt P00344 1-317); assay: cell-based or functional assay
[2] = target: T1, Bacillus stearothemophillus-derived …; assay: SPR (BIAcore), LDH immobilized on CM5 at 5653 RU
Experimental: Procedure similar to that with GST was used to immobilize LDH on CM-sensor chip (Sensor Chip CM5, Research grade, BIAcore) using the amino coupling method.
(§1) […] on CM5 were activated using EDC/NHS (equal amounts of EDC and NHS of Amine Coupling Kit (BIAcore) were mixed) (8-minute contact time), and the chip was washed with HBS-EP (BIAcore). Twenty μg/mL of LDH (Sigma, […] diluted in 10 mM acetic acid (pH5.0)) was then added to the chip. After washing the chip with HBS-EP, 1 M ethanol amine (pH 8.5) was added to inactivate the remaining activated carboxyl groups. Following the inactivation, the chip was washed with HBS-EP to remove all LDHs that had not been covalently bound. The amount of immobilized antigens was calculated 5653 RU. When binding was evaluated by adding saturating amounts of clone No. 430 to the sensor, the value was near 800 RU.

[3] = target: T1, Bacillus stearothemophillus-derived …; assay: SPR (BIAcore), LDH immobilized on CM5, (Langmuir) binding model
Experimental: as §1
(§2) All experiments were performed in HBS-EP at 25° C., and regeneration was performed under optimum conditions. Washing was performed for 1 min using 50 mM citric acid (pH2.5).
(§3) The binding was monitored by changing the LDH concentration (5×10⁻⁸ M to 4.0×10⁻⁷ M). […] Base-line correction was also taken into consideration. Values of ka (1/Ms), kd (1/S), and KD calculated based on kinetic analysis using global fitting (BIAevaluation Ver. 3) were as shown in Table 6.

[4] = target: T1, Bacillus stearothemophillus-derived …; assay: SPR (BIAcore), LDH immobilized on CM5, 1:1 binding with mass transfer model
Experimental: as §1, §2, §3

[5] = target: T1, Bacillus stearothemophillus-derived …; assay: ELISA: LDH on the plate (PBS wells as negative control), culture supernatant with VHH-cp3, anti-cp3 monoclonal and anti-mouse IgG-POD, OD 492 nm
Experimental: Similarly to anti-GST VHH, 60 clones and 36 clones were prepared as monoclones from the 3rd and 4th screenings, respectively. Next, ELISA was performed similarly as for anti-GST VHH.
LDH dissolved in PBS at 200 μg/mL was used to sensitize MaxiSorp™. Culture supernatant, 10-fold diluted mouse anti-cp3 monoclonal 3G3A8H1, and 1000-fold diluted goat anti-mouse IgG (H+L)-POD were added as primary, secondary, and tertiary antibodies, respectively, to this antigen-sensitized plate. As negative control, PBS was added instead of performing antigen sensitization.

[6] = target: glutathione S-transferase (GST); assay: cell-based or functional assay
[7] = target: glutathione S-transferase (GST); assay: SPR (BIAcore 1000), GST immobilized on CM5 at 2252 RU
[8] = target: glutathione S-transferase (GST); assay: SPR (BIAcore 1000), GST immobilized on CM5, from kinetic analysis
[9] = target: glutathione S-transferase (GST); assay: SPR (BIAcore 1000), GST immobilized on CM5, Langmuir model, global fitting
[10] = target: glutathione S-transferase (GST); assay: SPR (BIAcore 1000), GST immobilized on CM5, global fitting; mass transport limitation, value used as the lower limit
[11] = target: glutathione S-transferase (GST); assay: SPR (BIAcore 1000), GST immobilized on CM5
[12] = target: glutathione S-transferase (GST); assay: SPR (BIAcore 1000), GST immobilized on CM5 at 1750 RU

T1 sequence (P00344 whole entry): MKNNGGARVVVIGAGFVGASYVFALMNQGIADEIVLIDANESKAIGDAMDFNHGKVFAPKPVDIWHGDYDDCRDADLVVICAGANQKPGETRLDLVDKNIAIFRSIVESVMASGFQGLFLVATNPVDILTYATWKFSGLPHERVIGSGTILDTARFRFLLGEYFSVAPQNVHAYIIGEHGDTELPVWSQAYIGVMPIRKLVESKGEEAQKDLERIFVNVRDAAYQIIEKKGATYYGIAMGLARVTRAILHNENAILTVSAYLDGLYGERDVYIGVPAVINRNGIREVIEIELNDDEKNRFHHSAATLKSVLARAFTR

Binder | response at saturating amount (RU) [2] | Ka [3] | Kd [3] | koff [3] | kon [3] | Ka [4] | Kd [4] | koff [4] | kon [4] | binding result [5] | LDH reaction rate in the direction of lactic acid production [1] | further results
anti-LDH VHH clone No. 430, protein A-fused type (VHH, not shown: protein A part of the vector after SalI digestion and self-ligation) VHH: EVQLVESGGDSVQAGGSLRLSCVASSSTYSGNCMAWFRQAPGKEREGVAVVYTDDDTTYYADSVKGRFTISQDTAKNTLYLQMNSLKPEDTAMYYCATRDAWRRIGSWRDVAIYDYWGQGTQVTVSS | ~800 RU | 3.8e+06 M⁻¹ | 263 nM | 0.00258 s⁻¹ | 9820 M⁻¹ s⁻¹ | 4.04e+06 M⁻¹ | 248 nM | 0.00285 s⁻¹ | 11500 M⁻¹ s⁻¹ |  |  | IC50 of LDH enzyme inhibition [1]: ~400 nM
anti-LDH VHH clone No. 426, protein A-fused type (VHH, not shown: protein A part of the vector after SalI digestion and self-ligation) VHH: EVQLVESGGGSVQAGGSLRLSCAAPGNTYSTNLMGWFRQAPGKEREGVAAICCGRGTTFYADSVKGRFTISQDNAKKMVYLQMELLRPEDTGIYYCASGSVRGIWSGTSQYKYWGQGTQVTVSS |  |  |  |  |  |  |  |  |  | binds |  | 
anti-LDH VHH clone No. 434, protein A-fused type (VHH, not shown: protein A part of the vector after SalI digestion and self-ligation) VHH: EVQLVESGGGSVQAGGSLRLSCAASGYTSGRNYMAWFRQAPGKEREGVGRIYSTGGSARYADSVKGRFTISQDLSNDTMYLQMNNLKPEDTGMYYCAAGKPYGDMLDARGYKYWGHGTQVTVSS |  |  |  |  |  |  |  |  |  | binds |  | 
anti-GST VHH clone No. 75, protein A-fused type (VHH, not shown: large carriers) VHH: AVQLVDSGGGSVQAGGSLRLSCAASGTTYCTYDIAWYRQAPEKDYEFVSVIDSDGSTRYADSVKGRFTISRDNAKNTVYLQMNSLKPEDTAMYYCKTVFKSWCSDGLGTTLPNYWGQGTQVTVSS |  |  |  |  |  |  |  |  |  |  |  | GST enzyme inhibitory activity (absorbance at 340 nm, CDNB and glutathione as substrates) [6]: > 1.5 µM; response at saturating amount (RU) [7]: 300 RU; Kd [8]: 24 nM; kon [9]: 38100 M⁻¹ s⁻¹; koff [10]: 0.000915 s⁻¹
anti-LDH VHH clone No. 428, protein A-fused type (VHH, not shown: protein A part of the vector after SalI digestion and self-ligation) VHH: QVQLVESGGGLVQPGGSLRLSCAASGFSFSRSGMSWGRQAPGKGFEWVSRISSGGATWYADSVKGRFSISRDNAKNTVYLQLDSLKTEDTGMYYCAASDRSGSTYRGQGTQVTVSS | ~500 RU | 2.81e+06 M⁻¹ | 356 nM | 0.00513 s⁻¹ | 14400 M⁻¹ s⁻¹ | 2.86e+06 M⁻¹ | 350 nM | 0.00516 s⁻¹ | 14800 M⁻¹ s⁻¹ |  | 5 fold | 
anti-LDH VHH clone No. 421, protein A-fused type (VHH, not shown: protein A part of the vector after SalI digestion and self-ligation) VHH: AVQLVESGGGSVQAGGFLRLSCVASVNYCMAWFRQAPGKEREGVAAINRDGRTTAYADSVKGRFTISRGNEKNTVYLLMNNLKAEDTATYYCAAYVGGSYSCGTLENDGYKYWGQGTQVTVSS | ~1400 RU | 5.83e+06 M⁻¹ | 172 nM | 0.00409 s⁻¹ | 23900 M⁻¹ s⁻¹ | 5.83e+06 M⁻¹ | 171 nM | 0.00409 s⁻¹ | 23900 M⁻¹ s⁻¹ |  | 10 fold | 
anti-GST VHH clone No. 29, protein A-fused type (VHH, not shown: large carriers) VHH: EVQLVESGGGSVQAGGSLKLSCGLSGYTSSMNAMGWFRQAPGKEREGVAAVSRGGKAYYADSVKGRFTVSRDNVKNTVDLQMKGLKAEDTATYYCAATDESPLRRRFSLLDRRRYDWWGRGTQVFVSS |  |  |  |  |  |  |  |  |  |  |  | koff [11]: 0.00255 s⁻¹; kon [11]: 25400 M⁻¹ s⁻¹; response at saturating amount (RU) [12]: 460 RU; Kd [8]: 100 nM
anti-LDH VHH clone No. 407, protein A-fused type (VHH, not shown: protein A part of the vector after SalI digestion and self-ligation) VHH: AVQLVESGGGSVQTGGSLRLSCVASGYTYSSARIGWFRQAPGKEREGVAAILTDGVTTYYADAVKGRFTISRDNAKNTVYLQMNSLKPEDTAMYYCAIRTSPYSGGWFRVSQYNGWGQGTQVTVSS |  |  |  |  |  |  |  |  |  | binds |  | 
anti-LDH VHH clone No. 418, protein A-fused type (VHH, not shown: large carriers) VHH: EVQLVESGGGSVQAGDSLRLSCTTSGFTFANSVMVWYRQGSGNECKLVSSISTDGTTYYSTSVKGRFTISRDNAKNTVYLQMNNLKAEDTAMYYCAADFQASTVGRCDGYGYAKWGQGTQVTVSS |  |  |  |  |  |  |  |  |  |  | 10 fold | 
anti-LDH VHH clone No. 415, protein A-fused type (VHH, not shown: protein A part of the vector after SalI digestion and self-ligation) VHH: DVQLVESGGGSEQAGGSLRLSCAAPNITYCTGDRSWYRQAPGKEREFVSSINNDGTASYADSVKGRFTISQDIVKKSVYLRMNSLKPEDTAMYYCKTDFVDGTWCAIKFGRTHWGQGTQVTVSS |  |  |  |  |  |  |  |  |  | binds |  | 
